This assay addresses ALB蛋白(天然提取). The experiment in a line: AMC sensor, antibody immobilised at 10 ug/ml, ALB in gradient dilution in PBST.

B1: Anti-ALB-2G9mut2 (antibody, mouse IgG1, kappa, V domains shown)
VH: QVQLQQSGAELVRPGSSVKISCKASGYAFSNYWMNWVKQRPGQGLEWIGQIYPGDGDTYYNGRFKGKATITADKSPTTAYMQLSSLTSEDSAVYVCARGVLLGSFDYWGQGTTLTVSS
VL: QIVLTQSPAIMSASPGEKVTMTCSASSSVSYMHWYQQKSGTSPKRWIYDTSKLASGVPVRFSGSGSGTSYSLTIRSMEAEDAATYYCQQWGSNPLTFGAGTKLELKR
Usually Kd stands for the free concentration of one partner at which half of the binding sites on the other are occupied at equilibrium, for simple one-to-one binding. One may read the koff as the rate constant with which the complex falls apart. A lower koff goes with a long-lived complex. In general, kon refers to the second-order rate constant of association. For B1, the Kd was 1.85 nM, the off-rate (koff) stood at 0.00241 s⁻¹ and the on-rate (kon) is 1.3e+06 M⁻¹ s⁻¹.

These data come from patent CN117088975A.
